“And” between values parts separate entries of the source, which are not always exact repeats. Identical values can stand only once.
Test system: Bacillus subtilis DB104 (SP-AmyQ fusion secretion)
Test: AmyQ secretion efficiency, weighted average sort bin (1 = best secretion, 10 = worst) (bin number (weighted average, 1-10)); higher = lower secretion efficiency
Summary of the method: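 Occupied alginate beads were sorted by large-particle flow cytometry into 10 equally populated bins according to green/red fluorescence ratio. Each bead (~65 nL) held fluorescein-starch and about 0.3 cells of a B. subtilis DB104 library expressing mature AmyQ fused to designed signal peptides from the amyE locus, and beads were grown about 13 h at room temperature and stained with nile red before sorting. Bin amplicons were Illumina-sequenced, and the secretion score is the read-frequency-weighted average bin number, normalised to beads per bin, excluding low-abundance sequences.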

Row | Sequence | AmyQ secretion efficiency
1 | MGMKKKYTQGSRYRALGLALVGGGTWAAFN | 7.3
2 | MKKKRKRLAAGLTASAIVGTTLVVTPAEAATI | 2.55
3 | MFKFKKNFRKKRSAALMSISLFSATASAAST | 4.73
4 | MAIIIAIIAAVIVIAALITFNRNASPG | 6.99
5 | MSTSTSSSLISSTVLSTVVISSLLFPGAAGASSK | 2.7
6 | MKKRLKRKRVLVPALIMSGITLIEANKK | 6.77
7 | MNILLILLSSALSFGMLISAVPALAAGT | 2.56
8 | MPIKKKVMMCLAVTLVFGSMSFPTLTNSGNFKE | 5.35
9 | MKRMIVRMKRPSLIVCLAFSSFSASARAASE | 6.12
10 | MKNMSCKLVVSVTLFFSFLTIGPLVFPFAHAQNS | 4.97
11 | MRSYIKVLTMCFLGLILFVPTALAEEE | 2.15
12 | MRKNRILALFVLSLGLLSFMVTPTSAASK | 2
13 | MGTTIIILLLAVIIAAAAAGVAFYV | 7.47
14 | MLTKRLLTIYIMLLGLIAWFPGAAQAASK | 1.8
15 | MRGKSAVLLSLIMLIAGFLIEFSFQM | 8.38
16 | MKKTIMSFVAVAALSTTAFGAHASRKEI | 4.66
17 | MRFTKNVVGFLSVLGLAAVFPLTAQAEKA | 2.41
18 | MTKKAWFLPLVCVLLISGWLAPAASASTQTT | 2.01
19 | MKKLVLCVSILAVILSGVVLTQLS | 5.78
20 | MKLKKRVSMFLVALTMCGGLFVEPAKAVKT | 2.69
21 | MKKKQVMLALTAAAGLGLTALHSAPAAKPAPL | 4.99
22 | MKKGIIRFLLVSFVLFFALFAFIAFGGGTTVQAAPA | 1.86
23 | MKKKLAAGLTASAIVGTTLVRKKKAEAATI | 8.06
24 | MKKRFFGPIILAFILFAGAIDIPS | 6.03
25 | MLTKRLLTIYIMLLGLIFVILSALSAAWFPGAAQAEEK | 4.31
26 | MKQIRKKRKKFMLLAMTGQTALAKDV | 7.04

Row | Sequence | AmyQ secretion efficiency
27 | MRKYTVRRKRKRSFLSVLSGGHHESKAFPV | 7.56
28 | MRSKKLWISLLFALTLITFTMAFSNMSAQAAGK | 3.27
29 | MHLIRAAGAVCLAVVLIAGCRFGSIIVSAEGENT | 5.81
30 | MGMKKKLSLGVASAALGLALVGGGWWAAFN | 7.18
31 | MKSKWMSRKLLVAVGFSFTQVMVHAGET | 6.44
32 | MNKFLKSNFRYYTTGALGISLLASSNFIKASND | 7
33 | MKKVLMAFIICLSLILSVLAAPPSGTKAESV | 2.94
34 | MLKKIALTLCPAIVGSLLFFTAPASDHVS | 5.33
35 | MKKKRLFIFSAILTLSIFAPNETFAQTA | 2.43
36 | MKLSVKIRRRKTVAAAAMTAKMYATAKGN | 7.97
37 | MPIKKKVMMCLAVMLVFLMMSFPTLTNSGGFKE | 3.23
38 | MPYLKRMINFNNVLLLLVTGLFMSLFAVTATASAQTG | 1.05
39 | MKKELRRKKKRCLSLSPLVSTNEVFAATT | 6.21
40 | MKKMKKSGKRFLLALTIHVGEASAVIV | 6.51
41 | MLRITINIITMFIAAAVISLTGTAEAAEK | 3.59
42 | MKNMSCKLVVSVTLFFSFLTIGPLHHAQNS | 5.75
43 | MHLIRAAGAVCLAVVLIRFNEDQHQAEGENT | 5.07
44 | MMKKQVMLALTAAAGLGLTALHSAPAAKAAPL | 2.65
45 | MKNMSCKLVVSVTLFFSFLTIGPLAHTQNS | 4.17
46 | MKVPKTMLLSTAAGLLLSLTATSVSAHRK | 4.68
47 | MFNRLFRVCFLAALIMAFTLPNSVYEQKP | 7.29
48 | MNKFLKSNFRFLLAAALGISLLASSNFIKASND | 4.18 and 4.22 and 2.8
49 | MKKFLLVSFVLFFALSTGITGVQAAPA | 2.2
50 | MKKKIVAGLAVSAVVGAEAKTI | 8.76
51 | MTKLKMLSMLTVMIASLFIFSSQALDVQY | 6.18
52 | MGCTMMLLFSAIASFPVSAQAKDQ | 6.4

Row | Sequence | AmyQ secretion efficiency
53 | MKLKKRVSMFLVALLMCLLLFVSTPAKAVKT | 4.33
54 | MKLSVKIAGVLTVAAAAMTAKMYFTAKGN | 7.66
55 | MKKTTNVLMAFIICLSLILSVLAAPPSGAKAESV | 2.36
56 | MLTKRTTTSLLTIYIMLLGLIAWFPGAAQAEEK | 3.1
57 | MKKRLIAPMLKRAASLAFFAMSGSAQAAAY | 6.4
58 | MKKWMAGLFLAAAVLLCLMVPQQTTGTSGSVIQGASS | 4.56
59 | MKKAAAVLLSLGLVFGFSYGAEAKTK | 2.21
60 | MFNRLFRVCFLAALIMAFTLPNSYYAQKP | 7.48
61 | MKRFSTAYLLLGILCSAAVFLIGAPSRALGAPV | 1.61
62 | MRHKSITFILAVVVIIIIGNMIGGGGGSEATSK | 6.79
63 | MRGKSAVLLSLIMLIAGFLISFVFQM | 6.98
64 | MLKKKWMVGLLAGCLAAGGFSYNAFETEN | 6.72
65 | MKRLFMKASLVLFAVVFVFAVKGAPLKAETH | 2.67
66 | MRKKLKWLSFLLGFIILLFLFKYQFSSNDS | 5.44
67 | MKLKSKLLLSCLALSTVFVATTIANAPTR | 6.08
68 | MPIKKKVMMCLAVTLVFGSMSFPTLTNEGGFKE | 4.78
69 | MKKQIITATTAVVLGSTLFARKKRKKASAQSI | 7.27
70 | MKKLVLCVSILAVILSGVWLTQLS | 5.87
71 | MGLGKKLSVAVAASFMSLSISLPGIQAAEG | 1.56
72 | MRKKLKWLSFLLGFIILLFLFKYQGSNNDS | 5.93
73 | MKLWMRKTLVVLFTIVTFGLVSPPAATMADKP | 2.68
74 | MRHKIITFILAVVVIIIIGNMIGGGGGSEAEDD | 6.34
75 | MRRRTDYKKQVVGILLSLAFVLFVFSFSERHE | 6.74
76 | MKKGIIRFLLVSFVLFFALSTGITGVQAAPD | 2.73
77 | MFKKLKRRKSALTFSLSLVLPLDGHAKAQEV | 6.09
78 | MKKSQYFIVFICFFVLFSEHEEAAAAADS | 4.11

Row | Sequence | AmyQ secretion efficiency
79 | MRKFLLAAALGISLLASSNFIKASND | 4.88
80 | MKWMCSICCAAVLLAGGADQAEAV | 2.46
81 | MKSKGSIMACLILFSFTITTFINTETSSAFSN | 3.41
82 | MFKFKKNGKSRRTAALMSISLFSATASAAST | 4.18
83 | MTKKAWFLPLVCVLLIVSWLASAASASAQTT | 2.08
84 | MKRFSTAYLLLGILCSAAVFLIKRPSRALGAEV | 6.46
85 | MLSIWIGMLAAAVLLLMVPKVSLADAA | 6.86
86 | MKKAAAVLLSLGLVFGFSYGAGHVAELKTK | 6.97
87 | MIVIRKRKISIIVFLSVIQPQPS | 5.82
88 | MRKKRVITCVMAASLTLGSLLPAGYASAADD | 5.09
89 | MKKLVLCVSILAVILSGVQLTQLS | 5.61
90 | MKKCLLFLTTIALILSLSTNGFAKNT | 6.12
91 | MKKRFFGPIILAFILFAGVIAIPS | 6.86
92 | MMTMLFHSTLIVLLFFSFFGVQPIHAKKQ | 2.1
93 | MKLSVKIAGVLTVAAAAMVAFTIAFFFTAKMYATAKGN | 2.45
94 | MLKKKWMVGLLAGCLAAGGFSYNWFATEN | 6.53
95 | MKRLLVSLRVWMVFLMNWVTPDRKTAAAAVD | 7.62
96 | MKKRLIAPMLKRRKSLAFFAMSGSAQAAAY | 7.31
97 | MRPVFPLILSAVLFLSCFFGARQTERSASKR | 6.76
98 | MQKKWRRRLIQFAVMLSVLSTFTYSASAVGV | 3.56
99 | MRPVFPLILSAVLFLSCFFGARQTESSASKR | 3.91
100 | MNFKKTVVSALSISALALRKRRKRASAHEI | 7.78
101 | MKVLLSALLLLLFAFEPSASGAPR | 3.63
102 | MKRLLSTLLIGIMLLTFAPSAFAAED | 2.37
103 | MKKKQVMLALTAAAGLGLTALHSAPAVAGAAKAAPL | 2.43
104 | MNKLKRLSMLTVMIASVFIFSSHCLAAQY | 2.86

Row | Sequence | AmyQ secretion efficiency
105 | MKKGQYRRGSLGLVFGFSYGAGHVAEAKTK | 7.9
106 | MKSKWMSGLLLVAVGFSFTQVMVHPGET | 7.16
107 | MMKQIITATTAVVLGSTLFAGAASAQSI | 2.49
108 | MKRIRIPMTLALGAALTIAPLSFYSAEEN | 5.14
109 | MKRLFMKASLVLFAVVFVFAVKGAPAKAAKR | 3.29
110 | MKRITIIITMFIAAAVISLTGTAEAAEK | 2.84
111 | MKKAAAVLLSLGLVFEDEDEAGHVAEAKTK | 5.2
112 | MNKLKRLSMLTVMIASVFIFSSHALGAQY | 1.69
113 | MKSCKQLIVCSLAAILLLIPSVSFAADD | 2.66
114 | MKSKGSIMKCQILFSFTITTFINTETISAFSN | 6.89
115 | MGLGKKLSVAVAASFMSLSISLPGRQAAEG | 3.87
116 | MKKWIYVKKKKKKAGIGGFSVHAASS | 6.75
117 | MLKKKWMVGLLAGCLAAGEEPYNAFATEN | 4.04
118 | MRKKRVITCVMAASLTLGSLLTAVTASAKED | 3.16
119 | MKKLLAAGIIGLLTVSIASPAFAAEK | 2.44
120 | MKWMCTKCCTYQQLAGGAAQAEAV | 7.81
121 | MPYLKRVRRRRVTGLFMSLFAVTATASAQTG | 2.37
122 | MKVLLSALLLLLFAFEPSYSGKKL | 5.87
123 | MKSKGSIMACLILFSFTITTFINTETASAFSN | 4.22
124 | MKKTIMSQKQTAALSTTAFGAHASAKEI | 7.42
125 | MKKCKRRKTTIALILSLSTNAFAKNT | 7.38
126 | MPYLKRVLLLLVTGLFMSLFAVTATASAQDD | 3.08
127 | MTMLRKIIGWILLLCIIPLFAFTVIQSGKEV | 6.03
